Measurements: US20100248359A1 (Chugai, published 2010)

T1: GC-3 (GST fusion of GPC3 Ala524 to Lys563) (human, UniProt P51654 524-563)
T1 construct: not shown: GST as encoded by pGEX-4T-3 (Amersham), N-terminal to the GPC3 peptide
T1 chain: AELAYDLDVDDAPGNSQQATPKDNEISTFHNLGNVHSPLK

T2: C-terminal fragment of 30 kDa of the soluble form of GPC3 core protein (human, UniProt P51654 375-563)
T2 construct: the shorter limit is written; also called C-terminal side; band of about 30 kDa; not shown: His tag at the C-terminus
T2 chain: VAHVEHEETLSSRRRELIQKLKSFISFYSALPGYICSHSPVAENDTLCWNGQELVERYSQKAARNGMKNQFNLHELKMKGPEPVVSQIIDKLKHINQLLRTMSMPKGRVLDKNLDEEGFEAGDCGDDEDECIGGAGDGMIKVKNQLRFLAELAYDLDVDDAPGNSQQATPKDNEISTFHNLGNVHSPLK

T3: GC-2 (GST fusion of GPC3 Gly510 to Lys563) (human, UniProt P51654 510-563)
T3 construct: not shown: GST as encoded by pGEX-4T-3 (Amersham), N-terminal to the GPC3 peptide
T3 sequence: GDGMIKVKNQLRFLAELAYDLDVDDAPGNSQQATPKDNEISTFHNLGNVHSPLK

T4: GC-1 (GST fusion of GPC3 Ser495 to Lys563) (human, UniProt P51654 495-563)
T4 construct: Made in E. coli DH5alpha; not shown: GST as encoded by pGEX-4T-3 (Amersham), N-terminal to the GPC3 peptide
T4 sequence: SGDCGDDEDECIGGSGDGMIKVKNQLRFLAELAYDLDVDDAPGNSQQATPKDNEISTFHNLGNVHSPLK


Tests used:
[1] = target: T5, soluble form of GPC3 core protein (human, UniProt P51654 25-563); experiment: competitive ELISA on coated soluble GPC3 core protein; labelled competitor biotin-M3C11;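 also: Biotin-labelled antibody added as 10 µL at 10 µg/mL for 1 h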
T5 construct: not shown: His tag added to the C-terminus
Target sequence in this assay (P51654 25-563 S495A/S509A, form in doubt): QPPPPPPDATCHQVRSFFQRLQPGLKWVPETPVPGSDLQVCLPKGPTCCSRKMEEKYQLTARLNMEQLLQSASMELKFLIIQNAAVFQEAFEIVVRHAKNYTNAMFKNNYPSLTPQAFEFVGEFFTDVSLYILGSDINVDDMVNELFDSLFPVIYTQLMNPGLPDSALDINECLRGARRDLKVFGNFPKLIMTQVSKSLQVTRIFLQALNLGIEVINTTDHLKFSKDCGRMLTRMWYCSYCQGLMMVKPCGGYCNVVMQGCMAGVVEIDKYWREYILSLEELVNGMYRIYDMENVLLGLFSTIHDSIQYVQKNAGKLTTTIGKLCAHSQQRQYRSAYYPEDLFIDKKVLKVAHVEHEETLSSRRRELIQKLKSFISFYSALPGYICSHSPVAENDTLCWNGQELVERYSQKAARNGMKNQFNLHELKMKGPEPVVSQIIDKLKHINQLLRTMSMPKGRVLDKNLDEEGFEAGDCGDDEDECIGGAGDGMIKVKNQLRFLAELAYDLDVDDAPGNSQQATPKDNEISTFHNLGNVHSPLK

[2] = target: T5, soluble form of GPC3 core protein; experiment: competitive ELISA on coated soluble GPC3 core protein; labelled competitor biotin-L9G11;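 also: Biotin-labelled antibody added as 10 µL at 10 µg/mL for 1 h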
Target sequence in this assay (P51654 25-563 S495A/S509A, form in doubt): as above
Protocol: (§1) The obtained antibodies were classified according to the epitopes by a competitive ELISA. The antibodies were biotinylated using a Biotin Labeling Kit (Roche). The soluble form of GPC3 core protein was diluted to 1 μg/mL with the coating buffer and added to a plate at 100 μL/well and stored at 4° C. overnight to coat the plate. On the next day, 200 μL of the substrate buffer was added for blocking. The plate was left at 4° C. overnight or longer and an anti-GPC3 antibody was added to the plate at 100 μL/well and reacted at room temperature for 1 hour. After that, without washing of the plate, 10 μL of 10 μg/mL biotin-labeled anti-GPC3 antibody was added and further reacted for 1 hour. The plate was washed with 300 μL/well of the rinse buffer for 3 times. AP-streptavidin conjugate (ZYMED) was diluted to 1000-fold with the dilution buffer and added at 100 μL/well and reacted at room temperature for 1 hour. The plate was washed with 300 μL/well of the rinse buffer for 5 times.

full-length human GPC3 [3] = target: T6, full-length human GPC3 (human, UniProt P51654 25-554); experiment: flow cytometry, antibody at 5 µg/mL, HuH-7 cells
T6 construct: On CHO (DXB11) or SK-HEP-1 (SK-03) transfectants; also used here for the GPC3 on the hepatoma lines HepG2 and HuH-7; also called human glypican 3
Protocol: (§2) Cells were dissociated with 1 mM EDTA pH 8.0 (GIBCO)/PBS and suspended in FACS buffer (1% FBS/PBS) at 1×10⁶ cells/mL. The suspension was dispensed to a Multiscreen-HV Filter Plate (Millipore) at 100 μL/well and the supernatant was removed by centrifugation. An anti-GPC3 antibody diluted to an appropriate concentration was added and reacted on ice for 30 minutes. The cells were washed once with FACS buffer and an FITC-labeled anti-mouse IgG antibody was added and reacted on ice for 30 minutes. After the reaction, the cells were centrifuged at 500 rpm for 1 minute, and the supernatant was removed. The cells were suspended in 400 μL of FACS buffer and subjected to flow cytometry. EPICS ELITE ESP (Beckman Coulter) was used as a flow cytometer. A gate was set on the living cell population with the histogram of forward scatter and side scatter.

full-length human GPC3 [4] = target: T6, full-length human GPC3; experiment: flow cytometry, antibody at 5 µg/mL, CHO cells expressing human GPC3 (column CHO/human GPC3)
Protocol: as §2

[5] = target: T1, GC-3 (GST fusion of GPC3 Ala524 to …); experiment: Western blotting of GST-fusion proteins, reducing SDS-PAGE
[6] = target: T5, soluble form of GPC3 core protein; experiment: ELISA on plate coated with soluble GPC3 core protein
Target sequence in this assay (P51654 25-563 S495A/S509A, form in doubt): as above
Protocol: In order to conveniently evaluate the binding activity of the anti-GPC3 antibody thus obtained, concentration-dependent binding of the antibody was detected against an immunoplate containing the soluble form of GPC3 core protein immobilized thereon. A 3-fold dilution series (12 dilutions in total) of the purified antibody at a concentration of 10 μg/mL was added, and an anti-mouse IgG antibody was added as the secondary antibody. […] Since the degree of color development varies depending on the color development time, data measured precisely after 1 hour was analyzed. […] The correlation between the concentration of antibody and the degree of color development was plotted and an approximate curve was obtained by using an analyzing software, GraphPad Prism. Its EC50 value was determined as the index of the binding activity.

[7] = target: T5, soluble form of GPC3 core protein; experiment: competitive ELISA on coated soluble GPC3 core protein; labelled competitor biotin-M18D4;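 also: Biotin-labelled antibody added as 10 µL at 10 µg/mL for 1 h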
Target sequence in this assay (P51654 25-563 S495A/S509A, form in doubt): as above
Protocol: as §1

[8] = target: T5, soluble form of GPC3 core protein; experiment: competitive ELISA on coated soluble GPC3 core protein; labelled competitor biotin-M10D2;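 also: Biotin-labelled antibody added as 10 µL at 10 µg/mL for 1 h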
Target sequence in this assay (P51654 25-563 S495A/S509A, form in doubt): as above
Protocol: (§3) The antibodies were biotinylated using a Biotin Labeling Kit (Roche). The soluble form of GPC3 core protein was diluted to 1 μg/mL with the coating buffer and added to a plate at 100 μL/well and stored at 4° C. overnight to coat the plate. On the next day, 200 μL of the substrate buffer was added for blocking. The plate was left at 4° C. overnight or longer and an anti-GPC3 antibody was added to the plate at 100 μL/well and reacted at room temperature for 1 hour. After that, without washing of the plate, 10 μL of 10 μg/mL biotin-labeled anti-GPC3 antibody was added and further reacted for 1 hour. The plate was washed with 300 μL/well of the rinse buffer for 3 times. AP-streptavidin conjugate (ZYMED) was diluted to 1000-fold with the dilution buffer and added at 100 μL/well and reacted at room temperature for 1 hour. The plate was washed with 300 μL/well of the rinse buffer for 5 times.

full-length human GPC3 [9] = target: T6, full-length human GPC3; experiment: flow cytometry, antibody at 5 µg/mL, HepG2 cells
Protocol: as §2

[10] = target: T5, soluble form of GPC3 core protein; experiment: competitive ELISA on coated soluble GPC3 core protein; labelled competitor biotin-M5B9;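 also: Biotin-labelled antibody added as 10 µL at 10 µg/mL for 1 h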
Target sequence in this assay (P51654 25-563 S495A/S509A, form in doubt): as above
Protocol: as §3

[11] = target: T7, secreted form of GPC3 in the culture supernatant of HepG2 (human, UniProt P51654 25-358, limits assumed); experiment: immunoprecipitation of the culture supernatant of HepG2, detection of secreted GPC3
T7 construct: also called secretory GPC3; secreted form of GPC3 of 40 kDa

[12] = target: T5, soluble form of GPC3 core protein; experiment: competitive ELISA on coated soluble GPC3 core protein; labelled competitor biotin-M6B1;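 also: Biotin-labelled antibody added as 10 µL at 10 µg/mL for 1 h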
Protocol: as §3

full-length human GPC3 [13] = target: T6, full-length human GPC3; experiment: BIACORE; the form of GPC3 used is not given
[14] = target: T5, soluble form of GPC3 core protein; experiment: competitive ELISA on coated soluble GPC3 core protein; labelled competitor biotin-M11F1;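 also: Biotin-labelled antibody added as 10 µL at 10 µg/mL for 1 h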
Protocol: as §3

[15] = target: T5, soluble form of GPC3 core protein; experiment: competitive ELISA on coated soluble GPC3 core protein; labelled competitor biotin-M1E7;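 also: Biotin-labelled antibody added as 10 µL at 10 µg/mL for 1 h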
Protocol: as §3

[16] = target: T5, soluble form of GPC3 core protein; experiment: ELISA on plate coated with soluble GPC3 core protein; antibody from COS7 culture supernatant
[17] = target: T5, soluble form of GPC3 core protein; experiment: ELISA on plate coated with soluble GPC3 core protein; antibody from COS7 culture supernatant [lower right panel]
[18] = target: T5, soluble form of GPC3 core protein; experiment: ELISA on plate coated with soluble GPC3 core protein; antibody from COS7 culture supernatant [middle right panel]
Protocol: It was introduced into a COS7 cell using Fugene 6 (Roche) together with HEFgγ1, in which a humanized GC33H chain ver.k had been cloned. The antibody transiently expressed in the cell was recovered from the culture supernatant. The concentration of antibody was determined by a sandwich ELISA using the anti-human IgG antibody. The binding activity of the modified antibody was evaluated by an ELISA using an immunoplate coated with the soluble form of GPC3 core protein.
These antibodies were transiently expressed in COS7 cells, and the binding activity was evaluated using the culture supernatant.

[19] = target: T2, C-terminal fragment of 30 kDa of the …; experiment: Western blotting of soluble GPC3 core protein after reducing SDS-PAGE
Protocol: The soluble form of GPC3 core protein was applied to a 10% SDS-PAGE mini (TEFCO) and electrophoresed under reducing conditions. It was transferred to Immobilon-P (Millipore) using Trans-Blot SD Semi-Dry Electrophoretic Transfer Cell (BIO-RAD). After the membrane was briefly washed with TBS-T (0.05% Tween 20, TBS), it was shaken in TBS-T containing 5% skim milk for 1 hour. The membrane was shaken in TBS-T for about 10 minutes, then each anti-GPC3 antibody diluted with TBS-T containing 1% skim milk was added and the membrane was shaken for 1 hour. The membrane was washed with TBS-T and shaken in a solution of HRP-anti-mouse IgG antibody (Amersham) diluted with TBS-T containing 1% skim milk for 1 hour, and then washed with TBS-T. Color development was carried out using ECL-Plus (Amersham) and detected using Hyperfilm ECL (Amersham).

[20] = target: T3, GC-2 (GST fusion of GPC3 Gly510 to …); experiment: Western blotting of GST-fusion proteins, reducing SDS-PAGE
[21] = target: T4, GC-1 (GST fusion of GPC3 Ser495 to …); experiment: as above

T6 sequence (P51654 25-554 limits assumed): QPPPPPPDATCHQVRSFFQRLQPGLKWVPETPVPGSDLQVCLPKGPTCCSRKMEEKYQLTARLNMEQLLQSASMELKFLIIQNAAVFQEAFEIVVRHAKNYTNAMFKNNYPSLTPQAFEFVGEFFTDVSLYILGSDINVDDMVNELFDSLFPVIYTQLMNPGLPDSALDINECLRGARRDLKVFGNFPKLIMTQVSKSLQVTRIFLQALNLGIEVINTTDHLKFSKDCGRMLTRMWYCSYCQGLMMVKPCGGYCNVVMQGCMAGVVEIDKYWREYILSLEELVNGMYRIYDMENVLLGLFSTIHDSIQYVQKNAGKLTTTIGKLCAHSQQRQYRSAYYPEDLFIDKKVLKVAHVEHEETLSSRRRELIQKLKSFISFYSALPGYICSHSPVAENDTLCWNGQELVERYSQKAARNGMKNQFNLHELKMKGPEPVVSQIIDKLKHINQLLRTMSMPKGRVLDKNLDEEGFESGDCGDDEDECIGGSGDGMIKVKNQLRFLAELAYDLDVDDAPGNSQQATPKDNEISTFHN
T7 sequence (P51654 25-358 limits assumed): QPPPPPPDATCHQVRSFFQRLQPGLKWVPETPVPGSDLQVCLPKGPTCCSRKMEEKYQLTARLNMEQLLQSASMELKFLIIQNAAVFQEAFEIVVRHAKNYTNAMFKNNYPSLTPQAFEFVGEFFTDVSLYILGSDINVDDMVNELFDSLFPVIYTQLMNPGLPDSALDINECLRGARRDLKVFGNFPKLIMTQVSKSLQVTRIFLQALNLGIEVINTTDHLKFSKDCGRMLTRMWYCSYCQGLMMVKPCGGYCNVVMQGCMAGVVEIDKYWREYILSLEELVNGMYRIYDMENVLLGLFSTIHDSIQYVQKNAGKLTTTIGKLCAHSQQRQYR

Binder | Inhibition of the binding of indicated biotin-Mab to sGPC3 core (%) [1] | Inhibition of the binding of indicated biotin-Mab to sGPC3 core (%) [2] | FACS X-mode value of the histogram (full-length human GPC3 [3]) | FACS X-mode value of the histogram (full-length human GPC3 [4]) | binding result [5] | EC50 [6] | Inhibition of the binding of indicated biotin-Mab to sGPC3 core (%) [7] | Inhibition of the binding of indicated biotin-Mab to sGPC3 core (%) [8] | FACS X-mode value of the histogram (full-length human GPC3 [9]) | Inhibition of the binding of indicated biotin-Mab to sGPC3 core (%) [10] | Inhibition of the binding of indicated biotin-Mab to sGPC3 core (%) [12] | Kd (full-length human GPC3 [13]) | koff (full-length human GPC3 [13]) | kon (full-length human GPC3 [13]) | Inhibition of the binding of indicated biotin-Mab to sGPC3 core (%) [14] | Inhibition of the binding of indicated biotin-Mab to sGPC3 core (%) [15] | other results
humanized GC33 H chain ver.k / L chain ver.a (antibody, V domains shown, Parent of the N33 and G34 L chain variants) VH: QVQLVQSGAEVKKPGASVKVSCKASGYTFTDYEMHWVRQAPGQGLEWMGALDPKTGDTAYSQKFKGRVTLTADKSTSTAYMELSSLTSEDTAVYYCTRFYSYTYWGQGTLVTVSS VL: DVVMTQSPLSLPVTPGEPASISCRSSQSLVHSNGNTYLHWYLQKPGQSPQLLIYKVSNRFSGVPDRFSGSGSGTDFTLKISRVEAEDVGVYYCSQNTHVPPTFGQGTKLEIK | – | – | – | – | – | – | – | – | – | – | – | – | – | – | – | – | EC50 (read off the curve) [16]: ~0.02 µg/mL
modified humanized GC33 (H chain ver.k, L chain G34R) (antibody, human IgG1, V domains shown, COS7 supernatant; human IgG1/kappa) VH: QVQLVQSGAEVKKPGASVKVSCKASGYTFTDYEMHWVRQAPGQGLEWMGALDPKTGDTAYSQKFKGRVTLTADKSTSTAYMELSSLTSEDTAVYYCTRFYSYTYWGQGTLVTVSS VL: DVVMTQSPLSLPVTPGEPASISCRSSQSLVHSNRNTYLHWYLQKPGQSPQLLIYKVSNRFSGVPDRFSGSGSGTDFTLKISRVEAEDVGVYYCSQNTHVPPTFGQGTKLEIK | – | – | – | – | – | – | – | – | – | – | – | – | – | – | – | – | EC50 (read off the curve) [17]: ~0.02 µg/mL
modified humanized GC33 (H chain ver.k, L chain G34I) (antibody, human IgG1, V domains shown, COS7 supernatant; human IgG1/kappa) VH: QVQLVQSGAEVKKPGASVKVSCKASGYTFTDYEMHWVRQAPGQGLEWMGALDPKTGDTAYSQKFKGRVTLTADKSTSTAYMELSSLTSEDTAVYYCTRFYSYTYWGQGTLVTVSS VL: DVVMTQSPLSLPVTPGEPASISCRSSQSLVHSNINTYLHWYLQKPGQSPQLLIYKVSNRFSGVPDRFSGSGSGTDFTLKISRVEAEDVGVYYCSQNTHVPPTFGQGTKLEIK | – | – | – | – | – | – | – | – | – | – | – | – | – | – | – | – | EC50 (read off the curve) [18]: ~0.02 µg/mL
modified humanized GC33 (H chain ver.k, L chain G34K) (antibody, human IgG1, V domains shown, COS7 supernatant; human IgG1/kappa) VH: QVQLVQSGAEVKKPGASVKVSCKASGYTFTDYEMHWVRQAPGQGLEWMGALDPKTGDTAYSQKFKGRVTLTADKSTSTAYMELSSLTSEDTAVYYCTRFYSYTYWGQGTLVTVSS VL: DVVMTQSPLSLPVTPGEPASISCRSSQSLVHSNKNTYLHWYLQKPGQSPQLLIYKVSNRFSGVPDRFSGSGSGTDFTLKISRVEAEDVGVYYCSQNTHVPPTFGQGTKLEIK | – | – | – | – | – | – | – | – | – | – | – | – | – | – | – | – | EC50 (read off the curve) [18]: ~0.02 µg/mL
M3B8 (antibody, V domains shown, Mouse monoclonal from hybridoma) VH: QVTLKESGPGILQPSQTLSLTCSFSGFSLSTYGMGVGWIRQPSGMGLEWLANIWWYDAKYYNSDLKSRLTISKDTSNNQVFLKISSVDTSDTATYYCAQMGLAWFAYWGQGTLVTVSA VL: DIKMTQSPSSMYASLGERVTITCKASQDINNYLSWFQQKPGKSPKTLIYRANRLVDGVPSRFSGSGSGQDYSLTISSLEYEDMGINYCLQCDEFPPWTFGGGTKLEIK | – | – | – | – | binds | – | – | – | – | – | – | – | – | – | – | – | binding result [20]: binds; binding result [21]: binds

More lines, main results first:

Inhibition of the binding of indicated biotin-Mab to sGPC3 core (%) [1] | Inhibition of the binding of indicated biotin-Mab to sGPC3 core (%) [2] | FACS X-mode value of the histogram (full-length human GPC3 [3]) | FACS X-mode value of the histogram (full-length human GPC3 [4]) | binding result [5] | EC50 [6] | Inhibition of the binding of indicated biotin-Mab to sGPC3 core (%) [7] | Inhibition of the binding of indicated biotin-Mab to sGPC3 core (%) [8] | FACS X-mode value of the histogram (full-length human GPC3 [9]) | Inhibition of the binding of indicated biotin-Mab to sGPC3 core (%) [10] | Inhibition of the binding of indicated biotin-Mab to sGPC3 core (%) [12] | Kd (full-length human GPC3 [13]) | koff (full-length human GPC3 [13]) | kon (full-length human GPC3 [13]) | Inhibition of the binding of indicated biotin-Mab to sGPC3 core (%) [14] | Inhibition of the binding of indicated biotin-Mab to sGPC3 core (%) [15] | Binder | other results
2% | 20.9% | 2 | 9 | binds | 2.17 nM | -1.5% | 24.6% | 4 | 5.4% | 5.6% | 0.2 nM | 3.5e-05 s⁻¹ | 140000 M⁻¹ s⁻¹ | 81.8% | 3.9% | M11F1 (antibody, V domains shown, Mouse monoclonal from hybridoma) VH: QVTLKESGPGILQPSQTLSLTCSFSGFSLSIYGMGVGWIRQPSGKGLEWLANIWWNDDKYYNSALKSRLTISKDTSNNQVFLKISSVDTADTATYYCAQIGYFYFDYWGQGTTLTVSS VL: DVVMTQTPLSLPVSLGDQASISCRSSQSLVHSNGNTYLHWYLQKPGQSPKLLIYKVSNRFSGVPDRFSGSGSGTDFTLKISRVEAEDLGVYFCSQSTHVPWTFGGGTKLEIK | binding result [11]: no binding
2.1% | 92.2% | 4 | 29 | – | 0.62 nM | 15.7% | 1.2% | 26 | 6.4% | 10.1% | 10.7 nM | 0.0014 s⁻¹ | 130000 M⁻¹ s⁻¹ | 6% | -4.8% | L9G11 (antibody, V domains shown, Mouse monoclonal from hybridoma) VH: QVQLQQPGAELVKPGASVKLSCKASGYTFTSYWMHWVKQRPGQGLEWIGTIDPSDSETHYNLQFKDTATLTVDKSSSTAYMQLSSLTSEDSAVYYCIRGAFYSSYSYWAWFAYWGQGTLVTVSA VL: DIVLTQSPTSLAVSLGQSVTISCRASESVEYYGTSLMQWYQQKPGQPPKLLIYGASNVESGVPARFSGSGSGTDFSLNIHPVEEDDIAMYFCQQSRKVPYTFGSGTKLEIK | binding result [19]: no binding
26% | 38% | 5 | 28 | no binding | 0.96 nM | 9% | 14.8% | 16 | 6.4% | 7.7% | 2.8 nM | 0.000427 s⁻¹ | 150000 M⁻¹ s⁻¹ | 14.3% | 83.9% | M1E7 (antibody, human IgG1, kappa, V domains shown, Mouse monoclonal from hybridoma; also called M1E07) VH: EVQLQQSGPELVKPGASVKISCKASGYSFTGYYMHWVKQSPEKSLEWIGEINPSTGGTTYNQKFKAKATLTVDKSSSTAYMQLKSLTSEDSAVYYCARRGGLTGTSFFAYWGQGTLVTVSA VL: DVVMTQTPLSLSVTIGQPASISCKSSQSLLYSNGKTYLNWLQQRPGQAPKHLMYQVSKLDPGIPDRFSGSGSETDFTLKISRVEAEDLGVYYCLQSTYYPLTFGAGTKLELKR | binding result [11]: no binding
